Results reported in article PMC9270183 (The Journal of Experimental Medicine, 2022).
Substitutions are numbered along the chain they refer to.

B1: V043 (antibody, V domains shown)
VH: QLQLQESGPGLVKPSETLSLTCTVSGGSISSNNYYWGWIRQPPGKGLECIGTIYYSGNTYYNPSLKSRVTISVDTSKNQFSLKLGSVTAADTAVYYCARQQWLRDAFHIWGQGTMVTVSS
VL: NFMLTQPHSVSESPGKTVTISCTGSSGSIASNYVQWYQQRPGSAPTIVIYEDNQRPSGVPDRFSGSIDSSSNSASLTISGLKTEDEADYYCQSYDSNIHVVFGGGTKLTVL
notes: IgG; donor BRA15; source: recombinant monoclonal IgG, produced and purified as previously described
B2: V037 (antibody, V domains shown)
VH: EVQLVESGGGLVQPGGSLRLSCAASEVIVSSNYMSWVRQAPGKGLEWVSVLYSGGSTFYADSVKGRFTISRDNSKNTLYLQMNSLRAEDTAVYYCARDLGPMGAFDIWGQGTMVTVSS
VL: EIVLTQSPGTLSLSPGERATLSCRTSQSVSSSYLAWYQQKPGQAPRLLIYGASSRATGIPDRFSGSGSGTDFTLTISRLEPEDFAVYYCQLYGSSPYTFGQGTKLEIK
notes: as for B1
B3: V048 (antibody, V domains shown)
VH: QVQLVQSGAEVKKPGASVKVSCKASGYTFTSYVISWVRQAPGQGLEWMGWISAYNGNTNYAQKLQGRVTMTTDTSTSTAYMELRSLRSDDTAVYYCARDVAGITMIVEEVIDAFDIWGQGTMVTVSS
VL: SYELTQPSSVSVSPGQTARITCSGDVLAKKYARWFQQKPGQAPVLVIYKDSERPSGIPERFSGSSSGTTVTLTISGAQVEDEADYYCFSAPDNNRVFGGGTKLTVL
notes: as for B1
B4: V032 (antibody, V domains shown)
VH: QVQLVESGGGVVQPGRSLRLSCAASGFTFSSYGMHWVRQAPGKGLEWVAVISYDGSNKYYADSVKGRFTISRDNSKNTLYLQMNSLRAEDTAVYYCAKVSGPYCSSTSCYTGYWDYWGQGTLVTVSS
VL: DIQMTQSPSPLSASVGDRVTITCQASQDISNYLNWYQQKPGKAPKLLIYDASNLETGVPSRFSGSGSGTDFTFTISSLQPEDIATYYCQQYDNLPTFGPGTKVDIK
notes: IgG; donor BRA14; source: recombinant monoclonal IgG, produced and purified as previously described
B5: V038 (antibody, V domains shown)
VH: QVQLVQSGAEVKKPGASVKVSCKASGYTFTGYYVHWVRQAPGQGLEWMGWINPNSGGTNFAQRFQGRVTMTRDTSISTAYMELSRLRSDDTAVYYCARGITVYGVAPDAFDIWGQGTMVTVSS
VL: DIQMTQSPSSLSASVGDRVTITCQASQDISNYLNWYQQKPGKAPKVLIYDASNLEPGVPSRFSGSGSGTDFTFTISSLQPEDIATYYCQQYDNLITFGQGTRLEIK
notes: as for B1
B6: V046 (antibody, V domains shown)
VH: EVQLVESGGGLVQPGRSLRLSCAASGFTFEDYAMHWVRQAPGKGLEWVSGVSWNSGTIGYADSVKGRFIISRDNAKNSLYLQMNSLRAEDTALYYCANLGPTYYDFSRPTPMDVWGKGTTVTVSS
VL: QSALTQPASVSGSPGQSITISCTGTSSDVGGYNYVSWYQQHPGKAPKLIIYDVSNRPSGVSNRFSGSKSGNTASLTISGLQAEDEADYYCSSYTSSSTWVFGGGTKLTVL
notes: as for B1
B7: V045 (antibody, V domains shown)
VH: QVQLVQSGAEVKKPGASVKVSCKASTYTFTSYYIHWVRQAPGQGLEWMGIINPSGGSTSYAQNFQGRVTMTRDTSTSTVYMELSSLRSEDTAVYYCARGVLIPAAGGDFDYWGQGTLVTVSS
VL: QSALTQPRSVSGSPGQSVTISCTGTSSDVGGYKYVSWYQQHPGKAPKLMIYDVSKRPSGVPDRFSGSKSGNTASLTISGLQAEDEADYYCCSYAGSYSWVFGGGTKLTVL
notes: as for B1
B8: V042 (antibody, V domains shown)
VH: QLQLQESGPGLVKPSETLSLTCTVSGGSISSSTNYWGWIRQPPGKGLEWIGSIDYSGSTYYNPSLKSRVTMSVDTSKNQFSLKLSSVTATDTAMYYCARHVIDDSRGYYPAALDHWSQGTLVTVSS
VL: EIVLTQSPATLSLSPGERATLSCRASQSVNNYLAWYQQKPGQAPRLLIYDASNRATGVPARFSGSGSGTDFTLTISSLEPEDFAVYFCQQRSNWPPMYTFGQGTKLEIK
notes: as for B1
B9: V049 (antibody, V domains shown)
VH: QVQLVESGGGVVQPGRSLRLSCAASRFPFSNYGMHWVRQAPGKGLEWVAVISFDGNNKYYGDSVKGRLTISRDNSKNTLYLQVKSLRPEDTAVYYCAKDISTGLSLALFRSPDGEGMDVWGQGTTVTVSS
VL: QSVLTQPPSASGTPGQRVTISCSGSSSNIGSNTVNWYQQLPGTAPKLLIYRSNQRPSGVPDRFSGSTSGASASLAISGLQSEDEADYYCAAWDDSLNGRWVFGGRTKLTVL
notes: as for B1
B10: V055 (antibody, V domains shown)
VH: QVQLVQSGAEVKKPGSSVKVSCKASGGTFSSYIINWVRQAPGQGLEWMGRIIPILGIANYAQKFHGRVTITADESTSTAYMELSSLRSEDTAVYYCARGGPDPSDSNYAALLYYYYMDVWGKGTTVTVSS
VL: QSVLTQPPSVSAAPGQKVTISCSGSSSNIGSYYVSWYQKLPGTAPKLLIHENNKRPSGIPDRISGSKSGTSATLGITGLQTGDEADYYCGTWDSSLSDVVFGGGTKLTVL
notes: as for B1
B11: V004 (antibody, V domains shown)
VH: QVQLQESGPGLVKPSQTLSLTCTVSGGSISSGSYYWSWIRQPAGKGLEWIGRIYTSGSTNYNPSLKSRVTISVDTSKNQFSLKLSSVTAADTAVYYCARDTTDDYYVIWGQGTLVTVSS
VL: DIQMTQSPSTLSASVGDRVTITCRASQSIRSWLAWYQQKPGKAPKLLIYDASSLESGVPSRFSGSGSGTEFTLTISSLQPDDFATYYCQQYNTHFRTFGQGTKVEIK
notes: IgG; donor BRA13; source: recombinant monoclonal IgG, produced and purified as previously described
B12: V033 (antibody, V domains shown)
VH: QVQLVQSGAEVKKPGASVKVSCKASGYTFTSYGISWVRQAPGQGLEWMGWISAYNGNTNYAQKLQGRVTMTTDTSTSTAYMELRSLRSDDTAVYYCARGRFCSSTSCYRAAPNYYYYYMDVWGKGTTVTVSS
VL: NFMLTQPHSVSESPGKTVTISCTRSSGSIASNYVQWYQQRPGSAPTTVIYEDNQRPSGVPDRFSGSIDSSSNSASLTISGLKTEDEADYYCQSYDSSNPYWVFGGGTKLTVL
notes: as for B4
B13: V039 (antibody, V domains shown)
VH: QVQLQESGPGLVKPSQTLSLTCTVSGGSISSGSYYWSWIRQPAGKGLEWIGRIYTSGSTNYNPSLKSRVTISVDTSKNQFSLKLSSVTAADTAVYYCARADYSDYDNYYFDYWGQGTLVTVSS
VL: B12 VL with T19A, Q35H, A44S, E51D, P99H, Y100N
notes: as for B1
B14: V050 (antibody, V domains shown)
VH: EVQLVESGGGLVKPGGSLRLSCAASGFSFSNAWMSWVRQAPGKGLEWVGRIKSKTDGGTTDYAAPVKGRFTISRDDSQNTLYLQMNSLKTEDTAVYYCITDRFRVHIRGYYGQGTLVTVSS
VL: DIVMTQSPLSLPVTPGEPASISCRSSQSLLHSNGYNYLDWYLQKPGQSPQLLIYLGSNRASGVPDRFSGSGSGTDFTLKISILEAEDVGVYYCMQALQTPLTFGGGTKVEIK
notes: as for B1
B15: V051 (antibody, V domains shown)
VH: QVQLVESGGGVVQPGRSLRLSCEASGFTFSTYAMHWVRQAPGKGLEWVAVISYDGNNKYYADSVKGRLTVSRDNSKNTLYLQMNSLRAEDTAEYYCARDDGGYCSSLSCPMDVWGQGTTVTVSS
VL: SYELTQPPSVSVAPGKTARITCGGNSIGSKSVHWYQQRPGQAPVLVIYYDSDRPSGIPERFSGSNSGNTATLTISRVEAGDEADYYCQVWDSTLVFGGGTKLTVL
notes: as for B1
B16: V054 (antibody, V domains shown)
VH: QVQLVESGGGVVQPGRSLRLSCAASGFPFSSFGMHWVRQAPGKGLEWVAVISSDGSNKYYADSVKGRFTISRDNSKNTLYLQMNSLRAEDTAVYYCAKEFTYVVVTALWGTENFDIWGQGTMVTVSS
VL: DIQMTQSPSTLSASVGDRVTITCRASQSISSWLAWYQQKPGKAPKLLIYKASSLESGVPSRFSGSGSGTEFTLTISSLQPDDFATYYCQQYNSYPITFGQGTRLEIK
notes: as for B1
B17: V044 (antibody, V domains shown)
VH: QVQLVQSGAEVKKPGASVKVSCKASGYTFTSYDINWVRQATGQGLEWMGWMNPNSGYAGYTQKFQGRITMTRNTSISTAYMELSSLRSEDTAVYFCARISSPTRLDPWGQGTLVTVSS
VL: NFMLTQPHSVSESPGKTVTISCSRSRGSIASSFVQWYQQRPGSSPTTVIYDDNQRPSGVPDRFSGSIDSSSNSASLTISGLKTEDEADYYCQSYDSISWVFGGGTKLTVL
notes: as for B1
B18: V007 (antibody, V domains shown)
VH: QVQLVQSGAEVKKPGSSVKVSCKASGDTFSTYTISWVRQAPGQGLEWMGRIIPILGVGNYAQKFQGRVTITADKSTSTAYMELSSLRSEDTAVYYCAHTTPPGDAFDIWGQGTMVTVSS
VL: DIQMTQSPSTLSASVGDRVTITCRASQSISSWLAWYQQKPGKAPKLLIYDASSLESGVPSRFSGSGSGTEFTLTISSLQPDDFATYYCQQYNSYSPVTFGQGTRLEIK
notes: as for B11

The binders below were run against SARS-CoV-2 Wuhan-Hu-1 RBD (SARS-CoV-2 Wuhan-Hu-1, UniProt P0DTC2) (assay: BLI). Conditions: both partners purified.

| Binder | Kd [nM] |
| --- | --- |
| B1 | 4.46 |
| B2 | 6.9 |
| B3 | 5.02 |
| B4 | 8.3 |
| B5 | 5.73 |
| B6 | 0.698 |
| B7 | 2.95 |
| B8 | 32.5 |
| B9 | 12.8 |
| B10 | 0.981 |
| B11 | 3.59 |
| B12 | 4.68 |
| B13 | 1.09 |
| B14 | 56.9 |
| B15 | 14.5 |
| B16 | 17.8 |
| B17 | 5.25 |
| B18 | 3.59 |
